T1: RAP74, P35269
T1 chain: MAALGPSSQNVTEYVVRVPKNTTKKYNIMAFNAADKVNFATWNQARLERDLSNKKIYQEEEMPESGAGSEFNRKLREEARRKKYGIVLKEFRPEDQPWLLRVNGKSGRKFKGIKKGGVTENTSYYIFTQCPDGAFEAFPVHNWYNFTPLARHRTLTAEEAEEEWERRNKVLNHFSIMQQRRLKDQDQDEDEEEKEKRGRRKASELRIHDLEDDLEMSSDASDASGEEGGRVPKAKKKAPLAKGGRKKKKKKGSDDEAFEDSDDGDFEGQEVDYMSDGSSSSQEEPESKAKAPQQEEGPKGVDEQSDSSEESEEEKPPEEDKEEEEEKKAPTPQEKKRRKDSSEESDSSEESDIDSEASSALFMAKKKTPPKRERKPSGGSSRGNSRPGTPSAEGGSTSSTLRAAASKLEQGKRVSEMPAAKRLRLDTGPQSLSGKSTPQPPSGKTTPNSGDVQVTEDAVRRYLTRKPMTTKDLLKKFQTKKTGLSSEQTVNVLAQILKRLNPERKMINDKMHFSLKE


Legend:
[1] = biological target: Ser 2 phosphopeptide (28 aa CTD peptide, 4 heptad repeats)
[2] = biological target: Ser 5 phosphopeptide (28 aa CTD peptide, 4 heptad repeats)
RAP74, P35269 = biological target: T1, RAP74, P35269

Protein	CTD phosphatase assay (mobility shift of GST-CTDo to GST-CTDa) (GST-CTDo)	phosphate released from phosphopeptide (malachite green) [1]	phosphate released from phosphopeptide (malachite green) [2]	CTD phosphatase activity (dephosphorylation of RNAP IIO prepared by TFIIH), with and without 7 pmol RAP74 (RAP74, P35269)
FCP1 (protein) MEVPAAGRVPAEGAPTAAVAEVRCPGPAPLRLLEWRVAAGAAVRIGSVLAVFEAAASAQSSGASQSRVASGGCVRPARPERRLRSERAGVVRELCAQPGQVVAPGAVLVRLEGCSHPVVMKGLCAECGQDLTQLQSKNGKQQVPLSTATVSMVHSVPELMVSSEQAEQLGREDQQRLHRNRKLVLMVDLDQTLIHTTEQHCQQMSNKGIFHFQLGRGEPMLHTRLRPHCKDFLEKIAKLYELHVFTFGSRLYAHTIAGFLDPEKKLFSHRILSRDECIDPFSKTGNLRNLFPCGDSMVCIIDDREDVWKFAPNLITVKKYVYFQGTGDMNAPPGSRESQTRKKVNHSRGTEVSEPSPPVRDPEGVTQAPGVEPSNGLEKPARELNGSEAATPRDSPRPGKPDERDIWPPAQAPTSSQELAGAPEPQGSCAQGGRVAPGQRPAQGATGTDLDFDLSSDSESSSESEGTKSSSSASDGESEGKRGRQKPKAAPEGAGALAQGSSLEPGRPAAPSLPGEAEPGAHAPDKEPELGGQEEGERDGLCGLGNGCADRKEAETESQNSELSGVTAGESLDQSMEEEEEEDTDEDDHLIYLEEILVRVHTDYYAKYDRYLNKEIEEAPDIRKIVPELKSKVLADVAIIFSGLHPTNFPIEKTREHYHATALGAKILTRLVLSPDAPDRATHLIAARAGTEKVLQAQECGHLHVVNPDWLWSCLERWDKVEEQLFPLRDDHTKAQRENSPAAFPDREGVPPTALFHPMPVLPKAQPGPEVRIYDSNTGKLIRTGARGPPAPSSSLPIRQEPSSFRAVPPPQPQMFGEELPDAQDGEQPGPSRRKRQPSMSETMPLYTLCKEDLESMDKEVDDILGEGSDDSDSEKRRPEEQEEEPQPRKPGTRRERTLGAPASSERSAAGGRGPRGHKRKLNEEDAASESSRESSNEDEGSSSEADEMAKALEAELNDLM	FCP1 does not dephosphorylate rCTDo even at concentrations 100 times higher than that required to dephosphorylate RNAP IIO	Mammalian FCP1, within a comparable concentration range, did not act on either phosphopeptide	Mammalian FCP1, within a comparable concentration range, did not act on either phosphopeptide	
SCP1 261 (protein) MDSSAVITQISKEEARGPLRGKGDQKSAASQKPRSRGILHSLFCCVCRDDGEALPAHSGAPLLVEENGAIPKTPVQYLLPEAKAQDSDKICVVIDLDETLVHSSFKPVNNADFIIPVEIDGVVHQVYVLKRPHVDEFLQRMGELFECVLFTASLAKYADPVADLLDKWGAFRARLFRESCVFHRGNYVKDLSRLGRDLRRVLILDNSPASYVFHPDNAVPVASWFDNMSDTELHDLLPFFEQLSRVDDVYSVLRQPRPGS				RAP74 shifted the dose response curve for SCP1 catalyzed dephosphorylation of RNAP IIO to an approximately 10-fold lower concentration
GST-SCP1 214 (protein) MMGRPCLLTAGRPCLWRRMAPSLRQTPVQYLLPEAKAQDSDKICVVIDLDETLVHSSFKPVNNADFIIPVEIDGVVHQVYVLKRPHVDEFLQRMGELFECVLFTASLAKYADPVADLLDKWGAFRARLFRESCVFHRGNYVKDLSRLGRDLRRVLILDNSPASYVFHPDNAVPVASWFDNMSDTELHDLLPFFEQLSRVDDVYSVLRQPRPGS	SCP1 dephosphorylates rCTDo and RNAP IIO with comparable efficiency	SCP1 preferentially dephosphorylates the Ser 5 phosphopeptide compared to the Ser 2 phosphopeptide	SCP1 preferentially dephosphorylates the Ser 5 phosphopeptide compared to the Ser 2 phosphopeptide	
